The data set deals with the molecule itself. Nature of the data set: crystal structure.

These results are taken from PMC2739586 (Journal of molecular biology, 2009).

B1: Miner1 (C92S), soluble region of human Miner1 (amino acids 57-135) (domain or fragment)
chain: GSHMRPFLPKKKQQKDSLINLKIQKENPKVVNEINIEDLSLTKAAYCRCWRSKTFPACDGSHNKHNELTGDNVGPLILKKKEV
For orientation: stoichiometry N means a count of units in the complex or per binding partner. As for B1, the “stoichiometry N” value stood at 2.
